Laboratory results taken from the supplement of paper PMC7877785.
± gives the uncertainty stated by the source.

Test: self-splicing fitness, log relative to wild type (ln ratio); higher = more splicing; Tetrahymena group I intron in knt gene, E. coli kanamycin selection, DiMSum; sequences stand for … in CUCUCU…GGAGGGAAAAGUUAUCAGGCAUGCACCUGGUAGCUAGUCUUUAAACCAAUAGAUUGCAUCGGUUUAAAAGGCAAGACCGUCAAAUUGCGGGAAAGGGGUCAACAGCCGUUCAGUACCAAGUCUCAGGGGAAACUUUGAGAUGGCCUUGCAAAGGGUAUGGUAAUAAGCUGACGGACAUGGUCCUAACCACGCAGCCAAGUCCUAAGUCAACAGAUCUUCUGUUGAUAUGGAUGCAGUUCACAGACUAAAUGUCGGUCGGGGAAGAUGUAUUCUUCUCAUAAGAUAUAGUCGGACCUCUCCUUAAUGGGAGCUAGCGGAUGAAGUGAUGCAACACUGGAGCCGCUGGGAACUAAUUUGUAUGCGAAAGUAUAUUGAUUAGUUUUGGAGUACUCGUGGUCG
Summary of the method: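 Library with all eight P1ex-region intron nucleotides randomised, intron inside the knt kanamycin-resistance gene on pET-22b(+), in E. coli BL21(DE3). Cells grew overnight at 37°C or 30°C on LB agar with or without 25 μg/mL kanamycin (plus 100 μg/mL carbenicillin, 50 μM IPTG, 0.2% rhamnose), in six replicate transformations. Pooled colonies were amplicon-sequenced on Illumina HiSeq 2500. DiMSum fitness is the error-weighted combination of wild-type-normalised replicate fold changes, kanamycin versus none.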

| Sequence | self-splicing fitness (ln) (30 °C) | self-splicing fitness (ln) (37 °C) |
| --- | --- | --- |
| UCUCAGCAAUAUUACGGCUU | -3.42 ± 0.2 | -3.05 ± 0.18 |
| UCUCAGCAAUAUUACGGGCC | -2.05 ± 0.2 | -1.37 ± 0.27 |
| UCUCAGCAAUAUUACGGGGA | -2.92 ± 0.21 | -1.98 ± 0.22 |
| UCUCAGCAAUAUUACGGUAU | -3.7 ± 0.21 | -3.05 ± 0.26 |
| UCUCAGCAAUAUUACGUAGA | -0.809 ± 0.091 | -0.77 ± 0.13 |
| UCUCAGCAAUAUUACGUAUU | -3.14 ± 0.2 | -2 ± 0.16 |
| UCUCAGCAAUAUUACGUCGG | -1.51 ± 0.085 | -1.22 ± 0.11 |
| UCUCAGCAAUAUUACGUGAA | -1.14 ± 0.082 | 0.314 ± 0.1 |
| UCUCAGCAAUAUUACGUUUC | -4.29 ± 0.42 | -1.97 ± 0.34 |
| UCUCAGCAAUAUUACGUUUU | -3.4 ± 0.15 | -3.25 ± 0.21 |
| UCUGAGCAAUAUUACGACGA | -0.584 ± 0.11 | 0.197 ± 0.13 |
| UCUGAGCAAUAUUACGAGUA | -2.16 ± 0.16 | -2.17 ± 0.26 |
| UCUGAGCAAUAUUACGAUCU | -3.4 ± 0.35 | -2.52 ± 0.21 |
| UCUGAGCAAUAUUACGCCGA | -1.16 ± 0.21 | 0.184 ± 0.22 |
| UCUGAGCAAUAUUACGCUGC | -2.24 ± 0.37 | -1.46 ± 0.34 |
| UCUGAGCAAUAUUACGGCUU | -2.02 ± 0.32 | -2.34 ± 0.32 |
| UCUGAGCAAUAUUACGGGUC | -4.32 ± 0.39 | -2.38 ± 0.3 |
| UCUGAGCAAUAUUACGGUCA | -2.5 ± 0.29 | -1.7 ± 0.29 |
| UCUGAGCAAUAUUACGUACG |  | -2.34 ± 0.35 |
| UCUGAGCAAUAUUACGUCAG | -1.48 ± 0.096 | -0.513 ± 0.11 |
| UCUGAGCAAUAUUACGUGAC | -2.99 ± 0.2 | -2.97 ± 0.27 |
| UCUGAGCAAUAUUACGUGGA | -2.95 ± 0.29 | -1.63 ± 0.18 |
| UCUGAGCAAUAUUACGUGGU | -2.58 ± 0.13 | -2.21 ± 0.15 |
| UCUGAGCAAUAUUACGUGUG | -2.15 ± 0.12 | -1.51 ± 0.12 |
| UCUGAGCAAUAUUACGUUUU | -4.31 ± 0.29 | -3.26 ± 0.28 |
| UCUUAGCAAUAUUACGAAAA |  | -0.128 ± 0.34 |

| Sequence | self-splicing fitness (ln) (30 °C) | self-splicing fitness (ln) (37 °C) |
| --- | --- | --- |
| UCUUAGCAAUAUUACGAAAG | -2.07 ± 0.35 | -1.12 ± 0.34 |
| UCUUAGCAAUAUUACGAACA | -0.762 ± 0.13 | -1.04 ± 0.14 |
| UCUUAGCAAUAUUACGACAU | -3.836 ± 0.034 | -2.41 ± 0.04 |
| UCUUAGCAAUAUUACGACGA | 0.0588 ± 0.29 | -1.68 ± 0.22 |
| UCUUAGCAAUAUUACGACUU | -3.52 ± 0.31 | -2.47 ± 0.31 |
| UCUUAGCAAUAUUACGAGUU | -2.85 ± 0.16 | -0.665 ± 0.15 |
| UCUUAGCAAUAUUACGAUAG | -1.77 ± 0.17 | -1.63 ± 0.16 |
| UCUUAGCAAUAUUACGAUUU | -3.07 ± 0.18 | -1.09 ± 0.13 |
| UCUUAGCAAUAUUACGCGUU | -3.83 ± 0.34 | -1.75 ± 0.2 |
| UCUUAGCAAUAUUACGCUUA |  | -1.22 ± 0.28 |
| UCUUAGCAAUAUUACGCUUU |  | -2.47 ± 0.32 |
| UCUUAGCAAUAUUACGGAAU | -4.47 ± 0.26 | -1.93 ± 0.16 |
| UCUUAGCAAUAUUACGGCCU | -3.85 ± 0.46 |  |
| UCUUAGCAAUAUUACGGCGG | -0.64 ± 0.11 | -0.0592 ± 0.13 |
| UCUUAGCAAUAUUACGGGGG | -2.89 ± 0.39 | -2.51 ± 0.3 |
| UCUUAGCAAUAUUACGGGGU | -3.44 ± 0.2 | -2.39 ± 0.28 |
| UCUUAGCAAUAUUACGGUCA | -1.71 ± 0.16 | -0.613 ± 0.16 |
| UCUUAGCAAUAUUACGGUCC | -3.99 ± 0.29 | -2.74 ± 0.43 |
| UCUUAGCAAUAUUACGGUGA | -0.481 ± 0.1 | 0.15 ± 0.1 |
| UCUUAGCAAUAUUACGGUUC | -3.68 ± 0.28 | -2.29 ± 0.23 |
| UCUUAGCAAUAUUACGUACC | -1.26 ± 0.48 | -1.53 ± 0.41 |
| UCUUAGCAAUAUUACGUACU | -2.72 ± 0.17 | -1.66 ± 0.18 |
| UCUUAGCAAUAUUACGUCAC |  | -1.9 ± 0.33 |
| UCUUAGCAAUAUUACGUCCG | -1.41 ± 0.19 | -1.59 ± 0.23 |
| UCUUAGCAAUAUUACGUCCU | -1.97 ± 0.28 | -2.7 ± 0.38 |
| UCUUAGCAAUAUUACGUUAG | -3.78 ± 0.4 | -1.17 ± 0.21 |

| Sequence | self-splicing fitness (ln) (30 °C) | self-splicing fitness (ln) (37 °C) |
| --- | --- | --- |
| UGAAAGCAAUAUUACGCCUG | -0.546 ± 0.11 | -0.244 ± 0.12 |
| UGAAAGCAAUAUUACGCGAA | -1.52 ± 0.17 | -1.05 ± 0.2 |
| UGAAAGCAAUAUUACGCGUU | -3.19 ± 0.19 | -3.1 ± 0.29 |
| UGAAAGCAAUAUUACGCUGA | -2.09 ± 0.15 | -3.15 ± 0.23 |
| UGAAAGCAAUAUUACGCUUU | -4.77 ± 0.28 | -2.53 ± 0.26 |
| UGAAAGCAAUAUUACGGAGC | -3.81 ± 0.37 | -2.81 ± 0.26 |
| UGAAAGCAAUAUUACGGAUC | -3.19 ± 0.24 | -2.83 ± 0.33 |
| UGAAAGCAAUAUUACGGCCG | -0.266 ± 0.091 | 0.807 ± 0.15 |
| UGAAAGCAAUAUUACGGGAG | -1.49 ± 0.12 | -0.515 ± 0.12 |
| UGAAAGCAAUAUUACGGGUA | -1.01 ± 0.1 | -0.387 ± 0.097 |
| UGAAAGCAAUAUUACGGUUG | -1.29 ± 0.079 | -0.865 ± 0.091 |
| UGAAAGCAAUAUUACGUAAA | -1.75 ± 0.082 | -0.9 ± 0.098 |
| UGAAAGCAAUAUUACGUAUU | -3.21 ± 0.13 | -2.19 ± 0.12 |
| UGAAAGCAAUAUUACGUCAC | -3.83 ± 0.47 | -2.2 ± 0.27 |
| UGAAAGCAAUAUUACGUCGU | -4.87 ± 0.36 | -1.38 ± 0.12 |
| UGAAAGCAAUAUUACGUCUG | -0.102 ± 0.071 | 0.773 ± 0.09 |
| UGAAAGCAAUAUUACGUUUA | -0.985 ± 0.066 | -0.471 ± 0.074 |
| UGAAAGCAAUAUUACGUUUU | -3.67 ± 0.18 | -3.41 ± 0.35 |
| UGACAGCAAUAUUACGAAGU | -3.26 ± 0.2 | -2.91 ± 0.28 |
| UGACAGCAAUAUUACGACGG | -0.284 ± 0.11 | -0.251 ± 0.11 |
| UGACAGCAAUAUUACGAGCU | -2.11 ± 0.083 | -1.53 ± 0.083 |
| UGACAGCAAUAUUACGAUAG | -1.49 ± 0.07 | -0.347 ± 0.076 |
| UGACAGCAAUAUUACGAUGG | -1.5 ± 0.084 | 0.221 ± 0.12 |
| UGACAGCAAUAUUACGCAGC | -3.89 ± 0.33 | -2.43 ± 0.27 |
| UGACAGCAAUAUUACGCAGG | -3.54 ± 0.35 | -1.4 ± 0.2 |
